Assay results as given in paper PMC12737490, “Beta Toxins Isolated from the Scorpion Centruroides hirsutipalpus (Scorpiones; Buthidae) Affect the Function of Sodium Channels of Mammals” (Toxins, 2025).

Experiments:
[1] = tested on: hNav 1.6; experiment: Patch-clamp macroscopic sodium currents, hNav1.6 in HEK cells; type: cell-based, human; details: 200 nM toxin; for A: fraction of channels bound to the toxin: activation; for A: fraction of channels bound to the toxin / slope of activation after toxin / V0.5 of activation after toxin: sum of two Boltzmann fit; for A: fraction of channels bound to the toxin / I/Imax (residual peak current) / slope of inactivation after toxin / V0.5 of inactivation after toxin / slope of activation after toxin / V0.5 of activation after toxin: mean ± SE of 5 cells (3–5 cells); for I/Imax (residual peak current): both values marked * (p<0.05 paired t-test); for slope of inactivation after toxin / V0.5 of inactivation after toxin: steady-state inactivation; for slope of inactivation after toxin: control 6.6 ± 0.3 (Chirp7 cells), 6.3 ± 0.1 (Chirp9 cells); for V0.5 of inactivation after toxin: control -55.8 ± 0.3 (Chirp7 cells), -65.0 ± 0.1 (Chirp9 cells); for slope of activation after toxin: control 5.6 ± 0.22 (Chirp7 cells), 7.0 ± 0.4 (Chirp9 cells); for slope of activation after toxin / V0.5 of activation after toxin: both toxin values marked * (p<0.05); for V0.5 of activation after toxin: toxin-bound component, control -22.8 ± 0.3 (Chirp7 cells), -22.5 ± 0.3 (Chirp9 cells)
Description: Recordings of macroscopic currents from sodium channels. Human voltage-gated sodium channels (hNav 1.1, hNav 1.2 and hNa 1.6) were stably expressed in HEK cells. Cells were maintained at 37 ◦C with 5% CO2 in a humidified atmosphere. The growth medium consisted of high-glucose Dulbecco’s Modified Eagle Medium (DMEM, Sigma Aldrich, Naucalpan de Juarez, Estado de Mexico, Mexico), supplemented with 10% Fetal Bovine Serum (ByProductos, Guadalajara, Jalisco, Mexico) and 500 μg/mL of the antibiotic G418 (Sigma Aldrich, Naucalpan de Juarez, Estado de Mexico, Mexico). The extracellular solution was composed of (in mM): 130 NaCl, 5 KCl, 2 CaCl2, 2 MgCl2, 10 HEPES, and 5 glucose, with the pH adjusted to 7.3 using NaOH. The intracellular solution contained (in mM): 105 CsF, 27 CsCl, 5 NaCl, 2 MgCl2, 10 EGTA, and 10 HEPES, with the pH also adjusted to 7.3 with CsOH. Solutions were delivered to the patched cell via an active perfusion system connected to a variable-speed syringe pump (Model A-99, Razel Scientific Instruments, Fairfax, VT, USA), with a perfusion rate of approximately 1 μL/s. Patch pipettes were made from borosilicate glass capillaries (Warner Instruments, Hamden, CT, USA) using a vertical puller (Model P-30, Sutter Instrument, Novato, CA, USA). The pipettes were filled with the internal solution and had resistance ranging from 1.5 and 3 MΩ. Sodium currents were elicited by 100 ms depolarization ranging from −110 to 30 mV in 10 mV steps, followed by a fully activating step at −10 mV for 50 ms. To better appreciate the effects of scorpion β-sodium toxins, channels were primed by means of a 5 ms depolarization at 50 mV, applied 50 ms before the depolarization steps, as previously described in Cestele et al. 1998 [17]. To ensure complete recovery from inactivation, cells were maintained at −120 mV for 280 ms before each step, while holding potential was set at −100 mV. Currents were acquired using a MultiClamp 700A amplifier and a DigiData 1440A digitizer (Molecular Devices, CA, USA).
For the activation curve, conductance (G) was calculated from current (I) elicited during depolarization steps by means of the equation G = I/(Vm − ENa), where I is the current elicited at membrane potential Vm, and ENa is the reversal potential of Na^+ ions, calculated experimentally for each cell. Conductance was normalized to its maximal level and plotted against the corresponding membrane potential. For the steady-state inactivation curve, currents elicited at −10 mV (after preconditioning depolarization from −110 to 30 mV) were plotted against the preconditioning potentials. Data from activation and from steady-state inactivation were fitted using a Boltzmann equation: y = A2 + (A1 − A2)/(1 + exp((x − x0)/dx)) where A1 is the initial value, A2 is the final value, x0 is the potential of half-activation (or half-inactivation) and dx is the slope.
For hNav 1.6 currents, activation data after toxin exposure were fitted using the sum of two Boltzmann equations: y = y0 + A (frac/(1 + exp((x − x01)/k1)) + (1 − frac)/(1 + exp((x − x02)/k2))) where the sum is 1, x01 and dx1 are the same as under control conditions, and “frac” represents the fraction of channels bound to the toxin. Data are presented as means ± standard error (SE). The paired sample t-test (also known as the dependent samples t-test) was applied by comparing, for each individual cell recorded, the electrophysiological parameter of interest (e.g., peak current, V½ of activation or inactivation) before toxin application and after toxin application. Significant difference was accepted with a confidence level “p” set at 0.05. […]
Figure S1. Recordings of macroscopic currents from sodium channels. Sodium currents in B) were
elicited by the stimulation protocol depicted in A): currents were elicited by 100 ms depolarization
ranging from -110 to 30 mV in 10 mV steps, followed by a fully activating step at -10 mV for 50 ms. […]

[2] = tested on: antibody; experiment: Antibody recognition of Chirp9 compared with Cl13; type: binding; details: effect of the two amino acid differences between Chirp9 and Cl13
From the text: Evaluation of the recognition capability of scFvs for the toxins of C. hirsutipalpus. Surface plasmon resonance (SPR) evaluations of the recognition capability of scFvs for the toxins of C. hirsutipalpus. The toxins from C. hirsutipalpus were used to evaluate the recognition capacity of antibody fragments previously generated against Mexican scorpion toxins in a biosensor that detects molecular interactions in real time (Biacore X100, Uppsala, Sweden). The toxins Chirp7 and Chirp9 were covalently immobilized onto the surface of CM5 Chips using the amino coupling kit, achieving binding levels of 200 RUs (1 RU corresponds to a change in surface concentration of approximately one pg of bound mass per mm^2). Each pure toxin was solubilized in 10 mM 2-(N-morpholino) ethanesulfonic acid (pH 6) and bound to cell 2. Cell 1 in the sensor (without bound toxin) was used as a control. The scFvs LR, 10FG2, 11F, HV, and RAS 27 [21] were evaluated for their ability to recognize each toxin.

| Molecule | effect on activation curve [1] | effect on peak current [1] | A: fraction of channels bound to the toxin [1] | I/Imax (residual peak current) [1] | slope of inactivation after toxin [1] | V0.5 of inactivation after toxin [1] [mV] | slope of activation after toxin [1] | V0.5 of activation after toxin [1] [mV] | antibody recognition of Chirp9 versus Cl13 [2] | effect on inactivation kinetic ([1]; residual current at potentials greater than −30 mV) |
| --- | --- | --- | --- | --- | --- | --- | --- | --- | --- | --- |
| Chirp7 (disulfide (positions not given here); also: four disulfide bridges, pairing not given here) KEGYLVNHSTGCKYECFKLGDNDYCLRECRQQYGKGAGGYCYAFGCWCTHLYEQAVVWPLPKKTCN-NH2 | leftward shift in the activation curves | reduced the peak current | 0.34 ± 0.04 | 0.88 ± 0.03 | 7.2 ± 0.4 | -58 ± 0.4 | 9.4 ± 1.9 | -52.5 ± 3.4 |  |  |
| Chirp9 (disulfide (positions not given here); also: four disulfide bridges, pairing not given here) KEGYIVDYHTGCKYTCAKLGDNDYCVRECRLRYYQSAHGYCYAFACWCTHLYEAAVVWPLPNKRCK-NH2 | leftward shift in the activation curves | reduced the peak current | 1 ± 0.1 | 0.29 ± 0.03 | 6.9 ± 0.4 | -67.1 ± 0.5 | 15.5 ± 0.9 | -40.9 ± 0.2 | significantly reduce antibody recognition | slows down the inactivation kinetic by promoting a residual current |
